Where two headings read alike, the source gives them in different places.
Experiments:
[1] = molecular target: SARS-Cov2 Spike Active Trimer SAT (R&D Systems; Catalog No. 10549-CV) (SARS-CoV2) (UniProt P0DTC2)
[2] = molecular target: SARS-CoV-2 Spike (S) protein with an inactivated furin site on HEK293-Spike cells (293-SARS2-S-dfur, (SARS-CoV-2) (UniProt P0DTC2))
[3] = molecular target: SARS-Cov2 Spike Active Trimer SAT (R&D Systems; Catalog No. 10549-CV) (SARS-CoV2) (UniProt P0DTC2); test: SPR (Biacore)
[4] = molecular target: SARS-Cov2 Spike Active Trimer SAT (R&D Systems; Catalog No. 10549-CV) (SARS-CoV2) (UniProt P0DTC2); test: SPR (Carterra)
[5] = molecular target: SARS-Cov2 Spike Active Trimer SAT (R&D Systems; Catalog No. 10549-CV) (SARS-CoV2) (UniProt P0DTC2); test: ELISA, serially diluted purified Nb-Fc on SAT antigen
[6] = molecular target: SARS-Cov2 Spike Active Trimer SAT (R&D Systems; Catalog No. 10549-CV) (SARS-CoV2) (UniProt P0DTC2); remark: listed apart in the source

human SAT Nb-Fc control VH-Ab-8 (HAb8-S) (Fc fusion)
Response [1]: 0.489 | koff [1]: 0.00294 s⁻¹ | kon [1]: 149000 M⁻¹ s⁻¹ | GMFI [2]: 430 | GMFI Ratio [2]: 21.1 | Kd [3]: 5.7 nM | Kd [4]: 37.3 nM | EC50 [5]: 0.018 nM | Kd [6]: 19.8 nM

From patent US20240251767A1
